Here are results for three molecules from patent publication US9645151B2, “Targeting phosphofructokinase and its glycosylation form for cancer” (California Institute of Technology, priority 2012, dated 2017).

The target of data set [1] is T1, PFK1 (Homo sapiens, UniProt P17858).
T1 construct: made in house
T1 sequence (P17858 1-780): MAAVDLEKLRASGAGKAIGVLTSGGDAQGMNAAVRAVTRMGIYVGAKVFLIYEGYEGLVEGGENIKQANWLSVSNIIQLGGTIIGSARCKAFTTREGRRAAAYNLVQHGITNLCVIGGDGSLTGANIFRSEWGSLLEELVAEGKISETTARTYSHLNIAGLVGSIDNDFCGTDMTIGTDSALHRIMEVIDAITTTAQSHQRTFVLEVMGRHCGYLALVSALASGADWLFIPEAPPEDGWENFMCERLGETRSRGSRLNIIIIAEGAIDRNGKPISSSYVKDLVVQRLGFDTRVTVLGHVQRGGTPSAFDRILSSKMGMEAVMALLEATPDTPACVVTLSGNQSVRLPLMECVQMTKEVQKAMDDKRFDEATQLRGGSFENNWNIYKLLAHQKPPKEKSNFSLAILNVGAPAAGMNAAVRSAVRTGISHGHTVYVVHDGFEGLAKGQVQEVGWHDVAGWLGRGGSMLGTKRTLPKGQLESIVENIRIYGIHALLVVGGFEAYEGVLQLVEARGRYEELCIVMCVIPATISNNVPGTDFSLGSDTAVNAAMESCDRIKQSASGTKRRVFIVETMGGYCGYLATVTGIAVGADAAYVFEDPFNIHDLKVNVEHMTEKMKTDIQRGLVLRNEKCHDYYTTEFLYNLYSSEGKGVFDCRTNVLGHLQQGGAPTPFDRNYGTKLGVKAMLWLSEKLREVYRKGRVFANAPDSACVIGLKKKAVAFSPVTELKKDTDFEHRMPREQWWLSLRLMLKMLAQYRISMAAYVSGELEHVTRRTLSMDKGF
As to the kind of experiment: PFK1 oligomerization by native gel electrophoresis. The conditions noted are these: 50 nM F-2,6-BP, 50° C. for 30 min (FIG. 21). As for the experimental part:
Flag-tagged PFK1 (L isoform) was transiently expressed in 293T cells with or without co-expression of HA-tagged OGT. After 36 h, Flag-tagged PFK1 was isolated from the lysate using Flag M2 immunoaffinity resin and eluted with a 3 Å˜Flag peptide as described above. The eluent was concentrated using Amicon Ultra Centrifugal Filters (10-kD molecular weight cutoff). Similarly, 293T cells expressing Flag-tagged PFK1 were treated with PUGNAc (100 μM, 12 h) or cultured under hypoxic conditions (0.5% O2, 5% CO2, and 94.5% N2) at 37° C. for 24 h, before protein isolation. As a control, heat treatment of PFK1 in the presence or absence of 50 nM F-2,6-BP was performed at 50° C. for 30 min. The proteins were then subjected to native gel electrophoresis (Bio-Rad) and visualized by Coomassie blue staining as described above.

For data set [2], the system named is H1299, A549, or 293T cells. Kind of data set: Cell viability by trypan blue exclusion after PUGNAc treatment. It is filed as cell-based, human. The note with it: PUGNAc 100 μM for 9 h.
In data set [3] the test system is PFK1. Kind of data set: Analysis of PFK1 glycosylation (chemoenzymatic labeling, immunoblot). The note with it: 293T cells (FIG. 14). The format is cell-based, human. As for the experimental part:
To carry out chemoenzymatic labeling and biotinylation of proteins in cell lysates, cell lines and tissues were first lysed in lysis buffer (1% SDS, 50 mM Tris-HCl, pH 7.5, 100 mM NaCl, 10 μM PUGNAc, and Complete™ protease inhibitors (Roche)). The cell lysate (400 μg) was then labeled according to the Click-iT O-GlcNAc Enzymatic Labeling System protocol (Invitrogen) and conjugated with an alkyne-biotin compound as per the Click-iT Protein Analysis Detection Kit protocol (Invitrogen). Control experiments were carried out in parallel in the absence of the labeling enzyme GalT. […] To quantify the percentage of glycosylation, the intensity of the band eluted from resin (the glycosylated protein fraction) and the band from the input (the total protein) were measured. […] The percentage of glycosylation on Flag-tagged PFK1 was determined by using an antibody to Flag. To quantify the percentage of glycosylation, the intensity of the PEG-shifted band (the glycosylated protein fraction) and the unshifted band (the non-glycosylated protein fraction) were measured and the ratio of the intensity of the glycosylated protein fraction over the intensity of the total protein (glycosylated protein fraction plus non-glycosylated protein fraction) was taken as the glycosylation stoichiometry.

Data set [4] deals with T2, PFK1 (Homo sapiens, UniProt P17858).
T2 construct: made in house
T2 sequence (P17858 2-780): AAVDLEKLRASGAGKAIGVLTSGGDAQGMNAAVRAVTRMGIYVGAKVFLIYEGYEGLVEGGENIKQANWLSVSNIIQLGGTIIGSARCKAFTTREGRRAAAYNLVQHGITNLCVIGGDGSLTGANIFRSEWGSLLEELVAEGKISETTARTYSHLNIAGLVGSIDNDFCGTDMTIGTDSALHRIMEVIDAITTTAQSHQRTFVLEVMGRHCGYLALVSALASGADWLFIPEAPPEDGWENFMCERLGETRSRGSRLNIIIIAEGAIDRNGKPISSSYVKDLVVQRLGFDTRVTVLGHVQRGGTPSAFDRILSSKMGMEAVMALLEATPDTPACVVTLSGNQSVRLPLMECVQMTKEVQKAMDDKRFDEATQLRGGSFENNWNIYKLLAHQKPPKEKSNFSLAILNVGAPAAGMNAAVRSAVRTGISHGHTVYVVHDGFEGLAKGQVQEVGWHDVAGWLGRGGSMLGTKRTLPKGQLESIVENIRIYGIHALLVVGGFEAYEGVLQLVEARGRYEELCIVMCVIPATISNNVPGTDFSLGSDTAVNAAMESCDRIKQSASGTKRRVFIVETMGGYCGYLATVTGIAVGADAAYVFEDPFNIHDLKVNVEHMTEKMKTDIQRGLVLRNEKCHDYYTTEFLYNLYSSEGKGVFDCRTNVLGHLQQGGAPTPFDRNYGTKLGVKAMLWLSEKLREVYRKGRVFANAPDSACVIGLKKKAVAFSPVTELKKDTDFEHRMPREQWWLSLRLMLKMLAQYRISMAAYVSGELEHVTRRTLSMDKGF
As to the kind of experiment: PFK1 enzymatic assay. It is filed as biochemical. As for the experimental part: In order to measure PFK1 activity, a reaction was performed using either cell lysate (20 μg) or recombinant purified PFK1 (0.1 μg) in 1 ml of reaction buffer containing 50 mM Tris-HCl pH 7.5, 100 mM KCl, 5 mM MgCl2, 1 mM ATP, 0.2 mM NADH, 5 mM Na2HPO4, 0.1 mM AMP, 1 mM NH4Cl, 5 mM fructose-6-phosphate, 5 U of triose phosphate isomerase (Sigma-Aldrich), 1 U of aldolase (Sigma-Aldrich) and 1 U of α-glycerophosphate dehydrogenase (Sigma-Aldrich). Absorbance was recorded at 340 nm at room temperature every 15 s for 10 min using a Uvikon UV-Vis spectrophotometer (Research Instruments International). One unit of PFK1 activity is defined as the amount of enzyme that catalyzes the conversion of 1 μmol of fructose-6-phosphate to fructose-1,6-bisphosphate per min.
In order to determine the activation of PFK1 by F-2,6-BP (Sigma-Aldrich) over the indicated concentrations, reactions were performed in similar buffer conditions as described above except that an inhibitory concentration of ATP (3 mM) was used. […]
293T cells were transiently transfected with Flag-tagged PFKL, Myc-tagged PFKP, or Myc-tagged PFKM. […] Glycosylation levels were analyzed by chemoenzymatic labeling with a 5-kD mass tag, and PFK1 activities were measured on the purified proteins as described above.

On to `O=P(O)(O)OC[C@H]1O[C@@](CO)(OP(=O)(O)O)[C@@H](O)[C@@H]1O` [F-2,6-BP, fructose-2,6-bisphosphate], for which the “rescue of reduction of PFK1 oligomerization state by heat denaturation” value in data set [1] is reported as “partial rescue”. For `CC(=O)N[C@H]1/C(=N/OC(=O)Nc2ccccc2)O[C@H](CO)[C@@H](O)[C@@H]1O` [PUGNAc, O-(2-acetamido-2-deoxy-D-glucopyranosylidene) amino Nphenylcarbamate], the “effect on cell viability” value in data set [2] is on record as “did not affect cell viability”.

B1: S529A PFK1: modified PFK-1 polypeptide with serine to alanine substitution at position 529 (SEQ ID NO: 2) (protein)
chain: MAAVDLEKLRASGAGKAIGVLTSGGDAQGMNAAVRAVTRMGIYVGAKVFLIYEGYEGLVEGGENIKQANWLSVSNIIQLGGTIIGSARCKAFTTREGRRAAAYNLVQHGITNLCVIGGDGSLTGANIFRSEWGSLLEELVAEGKISETTARTYSHLNIAGLVGSIDNDFCGTDMTIGTDSALHRIMEVIDAITTTAQSHQRTFVLEVMGRHCGYLALVSALASGADWLFIPEAPPEDGWENFMCERLGETRSRGSRLNIIIIAEGAIDRNGKPISSSYVKDLVVQRLGFDTRVTVLGHVQRGGTPSAFDRILSSKMGMEAVMALLEATPDTPACVVTLSGNQSVRLPLMECVQMTKEVQKAMDDKRFDEATQLRGGSFENNWNIYKLLAHQKPPKEKSNFSLAILNVGAPAAGMNAAVRSAVRTGISHGHTVYVVHDGFEGLAKGQVQEVGWHDVAGWLGRGGSMLGTKRTLPKGQLESIVENIRIYGIHALLVVGGFEAYEGVLQLVEARGRYEELCIVMCVIPATIANNVPGTDFSLGSDTAVNAAMESCDRIKQSASGTKRRVFIVETMGGYCGYLATVTGIAVGADAAYVFEDPFNIHDLKVNVEHMTEKMKTDIQRGLVLRNEKCHDYYTTEFLYNLYSSEGKGVFDCRTNVLGHLQQGGAPTPFDRNYGTKLGVKAMLWLSEKLREVYRKGRVFANAPDSACVIGLKKKAVAFSPVTELKKDTDFEHRMPREQWWLSLRLMLKMLAQYRISMAAYVSGELEHVTRRTLSMDKGF
For the molecule B1, the “glycosylation of PFK1 mutant” value in data set [3] was “abolished”. Besides, the “PFK1 activity versus F-2,6-BP concentration” value in data set [4] (3 mM ATP (FIG. 19)) is reported as “impaired at lower F-2,6-BP concentrations”. Also, the “PFK1 activity under hypoxia” value in data set [4] (expressed in 293T cells, hypoxic vs normoxic (FIG. 2A)) is on record as “not significantly changed”.
